Test results from patent publication US20240026011A1 (Takeda / Millennium, published 2024).

Molecular target: T1, EGFR (UniProt P00533 25-645, limits assumed)
T1 construct: also called target EGFR

B1: Pro90 (hEGFR1) (other)
VHH: EVQLVESGGGLVQPGGSLRLSCAASGRTFSSYAMGWFRQAPGKEREFVVAINWSSGSTYYADSVKGRFTISRDNSKNTLYLQMNSLRAEDTAVYYCAAGYQINSGNYNFKDYEYDYWGQGTLVTVSS
Kd: 2 nM
koff: 0.00044 s⁻¹
kon: 221000 M⁻¹ s⁻¹
